Experimental findings from patent publication US20200317768A1 (published 2020) are described below.

Numbering of substitutions follows the chain as printed. Numbers in names are those of the source.

The chains are these.
T1: cynomolgus monkey FcγRIIb extracellular domain, C-terminal His-tag (cynomolgus monkey)
T1 construct: also called cyno FcγRIIb; cynoFcγRIIb; not shown: His-tag added to the C-terminus
T1 chain: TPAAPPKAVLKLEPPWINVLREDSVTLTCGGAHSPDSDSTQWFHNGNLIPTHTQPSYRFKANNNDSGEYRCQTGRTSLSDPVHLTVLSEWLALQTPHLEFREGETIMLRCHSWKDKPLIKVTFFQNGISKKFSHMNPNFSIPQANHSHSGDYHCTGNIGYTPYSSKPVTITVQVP

T2: cynomolgus monkey FcγRIIa3 extracellular domain, C-terminal His-tag (cynomolgus monkey)
T2 construct: also called cyno FcγRIIa3; FcgRIIa3; not shown: His-tag added to the C-terminus
T2 chain: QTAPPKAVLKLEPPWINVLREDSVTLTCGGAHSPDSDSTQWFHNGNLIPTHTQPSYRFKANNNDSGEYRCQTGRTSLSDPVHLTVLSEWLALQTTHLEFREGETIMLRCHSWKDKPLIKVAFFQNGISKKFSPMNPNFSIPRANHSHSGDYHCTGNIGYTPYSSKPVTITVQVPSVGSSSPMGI

T3: human FcγRIIaR extracellular domain, C-terminal His-tag (human, UniProt P12318 34-217)
T3 construct: also called human FcγRIIa (type R); FcgRIIaR
T3 chain: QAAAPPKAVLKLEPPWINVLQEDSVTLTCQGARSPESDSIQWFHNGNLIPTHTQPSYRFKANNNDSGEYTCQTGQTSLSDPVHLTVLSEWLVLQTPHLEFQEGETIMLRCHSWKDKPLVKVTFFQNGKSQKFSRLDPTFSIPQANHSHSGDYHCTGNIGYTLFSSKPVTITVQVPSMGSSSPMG

T4: human FcγRIIb extracellular domain, C-terminal His-tag (human, UniProt P31994 43-217)
T4 construct: also called FcgRIIb (human)
T4 sequence: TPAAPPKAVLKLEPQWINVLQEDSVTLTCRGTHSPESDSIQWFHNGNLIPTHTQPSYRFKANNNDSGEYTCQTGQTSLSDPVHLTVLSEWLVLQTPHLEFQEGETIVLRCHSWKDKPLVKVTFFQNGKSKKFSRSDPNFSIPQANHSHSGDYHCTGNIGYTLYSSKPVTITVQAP

T5: cynomolgus monkey FcγRIIa1 extracellular domain, C-terminal His-tag (cynomolgus monkey)
T5 construct: also called cyno FcγRIIa1; FcgRIIa1
T5 chain: T2 chain with T95P, A121T, S128A, P133H, N135D

T6: cynomolgus monkey FcγRIIa3 extracellular domain, C-terminal His-tag (cynomolgus monkey)
T6 construct: also called cyno FcγRIIa3; FcgRIIa3
T6 chain: T2 chain

T7: cynomolgus monkey FcγRIIb extracellular domain, C-terminal His-tag (cynomolgus monkey)
T7 construct: also called cyno FcγRIIb; cynoFcγRIIb
T7 chain: T1 chain

T8: human FcγRIIaH extracellular domain, C-terminal His-tag (human, UniProt P12318 34-217)
T8 construct: also called human FcγRIIa (type H); FcgRIIaH
T8 sequence: T3 chain with R134H

T9: cynomolgus monkey FcγRIIIaS extracellular domain, C-terminal His-tag (cynomolgus monkey, UniProt Q8SPW2 21-206 at identity 1.00))
T9 construct: also called cyno FcγRIIIaS; FcgRIIIaS
T9 chain: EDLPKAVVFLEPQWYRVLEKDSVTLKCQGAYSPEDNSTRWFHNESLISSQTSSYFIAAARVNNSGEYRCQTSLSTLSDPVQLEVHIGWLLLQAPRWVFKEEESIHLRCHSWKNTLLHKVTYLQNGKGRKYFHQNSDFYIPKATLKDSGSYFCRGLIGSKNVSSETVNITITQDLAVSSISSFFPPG

B1: MS1032LO06-SG1 (M103205H795-SG1/M103202L889-SK1) (antibody, human IgG1, kappa)
heavy: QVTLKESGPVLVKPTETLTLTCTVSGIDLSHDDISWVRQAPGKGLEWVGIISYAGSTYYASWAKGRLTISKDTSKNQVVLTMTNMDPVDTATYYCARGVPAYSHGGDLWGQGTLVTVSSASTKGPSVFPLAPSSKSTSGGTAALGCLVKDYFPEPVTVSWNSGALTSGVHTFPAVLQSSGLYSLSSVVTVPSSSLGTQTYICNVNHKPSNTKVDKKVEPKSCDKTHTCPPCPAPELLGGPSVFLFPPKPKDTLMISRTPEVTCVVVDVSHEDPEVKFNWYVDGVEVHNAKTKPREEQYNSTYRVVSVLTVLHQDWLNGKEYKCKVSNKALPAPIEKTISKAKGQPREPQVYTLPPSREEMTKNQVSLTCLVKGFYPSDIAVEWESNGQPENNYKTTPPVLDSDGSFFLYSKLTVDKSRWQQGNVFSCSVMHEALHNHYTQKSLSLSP
light: DIVMTQSPATLSLSPGERATLSCTSSQSVYHANWLSWFQQKPGQPPKLLIYWASTLAYGVPSRFSGSGSGTDFTLTISSLQPEDAATYYCAGGYGGGRYAFGQGTKVEIKRTVAAPSVFIFPPSDEQLKSGTASVVCLLNNFYPREAKVQWKVDNALQSGNSQESVTEQDSKDSTYSLSSTLTLSKADYEKHKVYACEVTHQGLSSPVTKSFNRGEC
notes: Anti-latent myostatin antibody
B2: MS1032LO06-PK56 (M103205H795-PK56/M103202L889-SK1) (antibody, human IgG1, kappa)
heavy: QVTLKESGPVLVKPTETLTLTCTVSGIDLSHDDISWVRQAPGKGLEWVGIISYAGSTYYASWAKGRLTISKDTSKNQVVLTMTNMDPVDTATYYCARGVPAYSHGGDLWGQGTLVTVSSASTKGPSVFPLAPSSKSTSGGTAALGCLVKDYFPEPVTVSWNSGALTSGVHTFPAVLQSSGLYSLSSVVTVPSSSLGTQTYICNVNHKPSNTKVDKKVEPKSCDKTHTCPPCPAPELLNGPSVFLFPPKPKDTLMISRTPEVTCVVVDVSDEDPEVKFNWYVDGVEVHNAKTKPREEQYNSTYRVVSVLTVLHRDWLNGKEYKCKVSNKALPKPIEKTISKAKGQRREPQVYTLPPSREEMTKNQVSLTCLVKGFYPSDIAVEWESNGQPENNYKTTPPVLDSDGSFFLYSKLTVRKSRWQQGNVFSCSVMHEALHNHYTQKSLSLSP
light: B1 light
notes: CH PK56 = SG1 with G236N/H268D/Q311R/A330K/P343R/D413R (EU numbering); also called MS103205H795-PK56
B3: MS1032LO06-MY201 (M103205H795-MY201/M103202L889-SK1) (antibody, human IgG1, kappa)
heavy: B2 heavy with R313Q, R345P, R415D
light: B1 light
notes: CH MY201 = SG1 with G236N/H268D/A330K (EU numbering); also called MS103205H795-MY201
B4: MS1032LO06-MY352 (M103205H795-MY352/M103202L889-SK1) (antibody, human IgG1, kappa, name in EU numbering)
heavy: B2 heavy with R345P
light: B1 light
notes: Printed substitutions: G236N/H268D/Q311R/A330K/D413R (EU numbering); also called MS103205H795-MY352
B5: MS1032LO06-PK57 (M103205H795-PK57/M103202L889-SK1) (antibody, human IgG1, kappa)
heavy: B2 heavy with R345P, N386R
light: B1 light
notes: CH PK57 = SG1 with G236N/H268D/Q311R/A330K/N384R/D413R (EU numbering); also called MS103205H795-PK57
B6: MS1032LO06-PK55 (M103205H795-PK55/M103202L889-SK1) (antibody, human IgG1, kappa)
heavy: B2 heavy with R415D
light: B1 light
notes: CH PK55 = SG1 with G236N/H268D/Q311R/A330K/P343R (EU numbering); also called MS103205H795-PK55
B7: MS1032LO06-MY351 (M103205H795-MY351/M103202L889-SK1) (antibody, human IgG1, kappa)
heavy: B2 heavy with R345P, R415K
light: B1 light
notes: CH MY351 = SG1 with G236N/H268D/Q311R/A330K/D413K (EU numbering); also called MS103205H795-MY351
B8: MS_M103205H795-SG1/M103202L889-SK1 (antibody, human IgG1, kappa)
heavy: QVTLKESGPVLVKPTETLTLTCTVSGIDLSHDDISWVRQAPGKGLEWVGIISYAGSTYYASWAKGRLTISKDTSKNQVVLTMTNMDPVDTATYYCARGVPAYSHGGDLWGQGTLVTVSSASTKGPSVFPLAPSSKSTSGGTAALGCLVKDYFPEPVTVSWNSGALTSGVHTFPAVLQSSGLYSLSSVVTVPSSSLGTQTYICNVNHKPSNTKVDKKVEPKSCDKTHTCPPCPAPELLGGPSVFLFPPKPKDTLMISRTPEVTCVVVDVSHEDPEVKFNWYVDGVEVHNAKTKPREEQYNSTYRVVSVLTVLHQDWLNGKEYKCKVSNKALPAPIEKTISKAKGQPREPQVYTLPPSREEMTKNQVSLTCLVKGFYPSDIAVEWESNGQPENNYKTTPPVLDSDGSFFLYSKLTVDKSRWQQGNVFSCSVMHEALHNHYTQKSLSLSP
light: B1 light
notes: also called MS1032LO06-SG1
B9: M103205H795-MY009/M103202L889-SK1 (antibody, human IgG1, kappa)
heavy: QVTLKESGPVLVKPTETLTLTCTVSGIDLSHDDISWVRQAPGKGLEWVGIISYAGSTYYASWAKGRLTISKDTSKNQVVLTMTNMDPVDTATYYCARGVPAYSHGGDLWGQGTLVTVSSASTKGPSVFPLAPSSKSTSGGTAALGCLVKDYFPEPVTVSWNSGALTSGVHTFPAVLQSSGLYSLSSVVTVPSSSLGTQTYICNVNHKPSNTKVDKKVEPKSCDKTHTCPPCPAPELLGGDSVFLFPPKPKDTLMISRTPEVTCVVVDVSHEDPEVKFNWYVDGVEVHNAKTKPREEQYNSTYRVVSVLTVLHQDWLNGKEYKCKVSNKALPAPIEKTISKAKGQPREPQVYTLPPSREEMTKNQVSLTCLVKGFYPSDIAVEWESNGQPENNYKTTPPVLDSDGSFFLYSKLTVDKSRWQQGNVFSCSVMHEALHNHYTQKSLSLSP
light: B1 light
notes: CH MY009 = SG1 with P238D (EU numbering); also called MS1032LO06-MY009

One assay has as its target T1, cynomolgus monkey FcγRIIb extracellular …. Description: SPR (BIACORE), antibody captured, soluble FcgR as analyte, 25C. As for the experimental part: (§1) The kinetic analysis of interactions between these antibodies and FcγR was carried out using BIACORE® T200 or BIACORE® 4000 (GE Healthcare). HBS-EP+ (GE Healthcare) was used as the running buffer, and the measurement temperature was set to 25° C. A chip produced by immobilizing Protein A. Protein A/G or mouse anti-human IgG kappa light chain (BD Biosciences) onto a Series S Sensor Chip CM4 or CM5 (GE Healthcare) by the amine-coupling method was used. […] After the measurement, the antibody captured on the chip was washed off by allowing reaction with 10 mM glycine-HCl, pH1.5 and 25 mM NaOH so that the chip was regenerated and used repeatedly. The sensorgrams obtained as measurement results were analyzed by the 1:1 Langmuir binding model using the BIACORE® Evaluation Software to calculate the binding rate constant ka (L/mol/s) and dissociation rate constant kd (l/s), and the dissociation constant KD (mol/L) was calculated from these values. […] Regarding such interactions, KD values were calculated using the following 1:1 binding model described in BIACORE® T100 Software Handbook BR1006-48 Edition AE.
(§2) The behavior of interacting molecules according to the 1:1 binding model on BIACORE® can be described by Equation 1: Req=C·R max/(KD+C)+RI, wherein, Req is a plot of steady-state binding levels to analyte concentration. C is concentration, RI is bulk refractive index contribution in the sample, and Rmax is analyte binding capacity of the surface. When this equation is rearranged, KD can be expressed as Equation 2: KD=C·Rmax/(Req−RI)−C. KD can be calculated by substituting the values of Rmax, RI, and C into Equation 1 or Equation 2. From the current measurement conditions, RI=0, C=2 μmol/L can be used.
For orientation: Surface plasmon resonance follows binding to a sensor surface in real time, without labels.
A word on the Kd: it is the concentration at which binding is half-saturated. B1 displayed a Kd of 1900 nM.
The same measure, in the same setting: the same measure for B2: 500 nM.
The same measure, in the same setting: to B3 belongs 330 nM.
The same measure, in the same setting: the same measure for B4: 420 nM; for B5: 520 nM; for B6: 360 nM.
As to B7, binding was put at a Kd of 380 nM.

The target in a further assay is T2, cynomolgus monkey FcγRIIa3 …. The description is as above. As for the experimental part: as §1, §2
In turn, B1 returned a Kd of 8600 nM.
Still for that read-out and setting: the same measure for B2: 2500 nM.
B3 gave a Kd of 1800 nM.
Same read-out and setting: to B4 belongs 2200 nM.
Still for that read-out and setting: to B5 belongs 3100 nM; to B6, 2000 nM.
On the same count and under the same terms, the same measure for B7: 2200 nM.

Another assay addresses T3, human FcγRIIaR extracellular domain, …. The experiment in a line: SPR; KD of SG1 / KD of variant.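 Note: relative to parent M103205H795-SG1 carrying the SG1 human heavy chain constant region.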 As for the experimental part:
as §1
For B8, the “KD fold (SG1 = 1)” value amounted to 1 fold.
On the same count and under the same terms, to B9 belongs 0.1 fold.

In a further assay the target is T4, human FcγRIIb extracellular domain, …. Description: SPR; KD of SG1 / KD of variant.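 Note: relative to parent M103205H795-SG1 carrying the SG1 human heavy chain constant region.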 As for the experimental part: as §1
On to B8, for which the “KD fold (SG1 = 1)” value was 1 fold.
On the same count and under the same terms, to B9 belongs 3.3 fold.

For the next assay, the target named is T5, cynomolgus monkey FcγRIIa1 …. The experiment in a line: SPR; KD of SG1 / KD of variant.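 Note: relative to parent M103205H795-SG1 carrying the SG1 human heavy chain constant region.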 Here is the method: as §1
With B8, the “KD fold (SG1 = 1)” value was determined as 1 fold.
Turning to B9, the “KD fold (SG1 = 1)” value is 0.2 fold.

Another assay deals with T6, cynomolgus monkey FcγRIIa3 …. The experiment in a line: SPR; KD of SG1 / KD of variant.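 Note: relative to parent M103205H795-SG1 carrying the SG1 human heavy chain constant region.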 Here is the method:
as §1
As for B8, the “KD fold (SG1 = 1)” value is 1 fold.
On the same count and under the same terms, to B9 belongs 0.5 fold.

The target in the next assay is T7, cynomolgus monkey FcγRIIb extracellular …. Description: SPR; KD of SG1 / KD of variant. As for the experimental part: as §1
For B8, the “KD fold (SG1 = 1)” value is 1 fold.
As for B9, the “KD fold (SG1 = 1)” value came to 0.4 fold.

The target in a further assay is T8, human FcγRIIaH extracellular domain, …. Description: SPR; KD of SG1 / KD of variant. As for the experimental part: as §1
Turning to B8, the “KD fold (SG1 = 1)” value was found to be 1 fold.
The same measure, in the same setting: the same measure for B9: 0.01 fold.

The target in another assay is T9, cynomolgus monkey FcγRIIIaS …. The experiment in a line: SPR; KD of SG1 / KD of variant. As for the experimental part: as §1
For the molecule B8, the “KD fold (SG1 = 1)” value was found to be 1 fold.
For the molecule B9, the “KD fold (SG1 = 1)” value worked out at 0.004 fold.
